Data reported in publication PMC7241075.
Values joined by “and” are separate entries in the source; they are usually repeats but may differ in a detail not shown here. Equal entries are not always repeated.

How the values were obtained:
[1] = molecular target: Scolopendra subspinipes subspinipes haemocyanin (Scolopendra subspinipes subspinipes); assay: negative-stain transmission electron microscopy; Hc pellet from ultracentrifugation, 26-30 µg ml^-1, in 50 mM MES (pH 6.2, 6.6) or 50 mM TRIS-HCl (pH 7.2-8.5) with 5 mM CaCl2 and 5 mM MgCl2; particles counted as 3 × 6-mer or 1 × 6-mer
[2] = molecular target: Scolopendra subspinipes subspinipes haemocyanin (Scolopendra subspinipes subspinipes); assay: negative-stain transmission electron microscopy; first SEC peak in TRIS stabilizing buffer, stained with 2% uranyl acetate, Jeol 1400Plus
[3] = molecular target: Scolopendra subspinipes subspinipes haemocyanin (Scolopendra subspinipes subspinipes); assay: SEC; plasma (supernatant of haemolymph, 3300g, 30 min, 4°C) on Superose 6 3.2/300, isocratic Tris buffer with 5 mM CaCl2 and 5 mM MgCl2, pH 8.2 or 8.0 (methods), 0.1 ml min^-1; oligomer told from the retention volume
[4] = molecular target: Scolopendra subspinipes subspinipes haemocyanin (Scolopendra subspinipes subspinipes); assay: negative-stain transmission electron microscopy; first SEC peak in TRIS stabilizing buffer, stained with 2% uranyl acetate, Jeol 1400Plus; remark: listed apart in the source
[5] = molecular target: Scolopendra viridicornis haemocyanin (Scolopendra viridicornis); assay: SEC; plasma (supernatant of haemolymph, 3300g, 30 min, 4°C) on Superose 6 3.2/300, isocratic Tris buffer with 5 mM CaCl2 and 5 mM MgCl2, pH 8.2 or 8.0 (methods), 0.1 ml min^-1; oligomer told from the retention volume
[6] = molecular target: Scolopendra viridicornis haemocyanin (Scolopendra viridicornis); assay: negative-stain transmission electron microscopy; first SEC peak in TRIS stabilizing buffer, stained with 2% uranyl acetate, Jeol 1400Plus

Substance	stoichiometry N [1]	stoichiometry N [2]	stoichiometry N [3]	stoichiometry N [4]	stoichiometry N [5]	stoichiometry N [6]
Scolopendra subspinipes subspinipes haemocyanin (complex)	18 and 6	6	18	18	–	–
Scolopendra viridicornis haemocyanin (complex)	–	–	–	–	36	36 and 18
